According to paper PMC6547681, “Structures of BCL-2 in complex with venetoclax reveal the molecular basis of resistance mutations” (Nature Communications, 2019):
pKd, pKi: −log10 of the molar value.

Key:
BIMBH3 peptide = test: SPR; direct binding; biotinylated BIMBH3 or BAXBH3 peptide immobilised on SA sensor chip, BCL-2 (0-63 nM) as analyte; HBS-EP (10 mM hepes pH 7.4, 150 mM sodium chloride, 3.4 mM EDTA, 0.005% tween 20, optionally 1 mM TCEP for BAXBH3), 25 °C; BIAcore 4000 or S200; 1:1 binding site kinetic model; BIMBH3-4A reference surface
Sequence of BIMBH3 peptide (O43521 141-166): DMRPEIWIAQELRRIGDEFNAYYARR

BAXBH3 peptide = test: as above
Sequence of BAXBH3 peptide (Q07812 other isoform, or with tags, fused parts or gaps): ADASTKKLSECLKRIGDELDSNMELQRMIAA

venetoclax = test: steady-state competition SPR; details: BIMBH3 peptide immobilised on chip; BCL-2 analyte pre-combined with venetoclax at 0, 20, 40, 60 nM
S55746 = test: steady-state competition SPR; details: BIMBH3 peptide immobilised on chip; BCL-2 analyte pre-combined with S55746 at 0, 20, 40, 60 nM

pKd (BIMBH3 peptide) | pKd (BAXBH3 peptide) | pKi (venetoclax) | pKi (S55746) | Substance
9.44 | 8.44 |  |  | BCL-2 E152A (from UniProt P10415 1-239) (natural protein)
9.77 | 8.40 |  |  | BCL-2 F104C (from UniProt P10415 1-239) (natural protein)
9.64 |  |  |  | BCL-2 G101A (from UniProt P10415 1-239) (natural protein)
9.20 | 8.26 |  |  | BCL-2 G101V/E152A double mutant (from UniProt P10415 1-239) (natural protein)
 |  | 10.57 |  | BCL-2 WT (from UniProt P10415) E152A
 |  | 7.60 |  | BCL-2 WT (from UniProt P10415) F104C
 |  | 9.96 |  | BCL-2 WT (from UniProt P10415) G101A
 |  |  | 7.44 | BCL-2 WT (from UniProt P10415) G101V
 |  | 11.70 | 8.28 | BCL-2 WT (from UniProt P10415) G101V; E152A
